Laboratory results as given in patent US9969998B2, “Compositions of adenosine deaminase-2 (ADA2), variants thereof and methods of using same” (Halozyme, Inc., priority 2014, dated 2018).
Numbering of substitutions follows the chain as printed. In names and notes the source's numbering stands. Where two headings read alike, the source gives them in different places.

B1: ADA2: wild-type human adenosine deaminase 2, mature form SEQ ID NO:5, homodimer (protein, listed as Homo sapiens)
chain: IDETRAHLLLKEKMMRLGGRLVLNTKEELANERLMTLKIAEMKEAMRTLIFPPSMHFFQAKHLIERSQVFNILRMMPKGAALHLHDIGIVTMDWLVRNVTYRPHCHICFTPRGIMQFRFAHPTPRPSEKCSKWILLEDYRKRVQNVTEFDDSLLRNFTLVTQHPEVIYTNQNVVWSKFETIFFTISGLIHYAPVFRDYVFRSMQEFYEDNVLYMEIRARLLPVYELSGEHHDEEWSVKTYQEVAQKFVETHPEFIGIKIIYSDHRSKDVAVIAESIRMAMGLRIKFPTVVAGFDLVGHEDTGHSLHDYKEALMIPAKDGVKLPYFFHAGETDWQGTSIDRNILDALMLNTTRIGHGFALSKHPAVRTYSWKKDIPIEVCPISNQVLKLVSDLRNHPVATLMATGHPMVISSDDPAMFGAKGLSYDFYEVFMGIGGMKADLRTLKQLAMNSIKYSTLLESEKNTFMEIWKKRWDKFIADVATK
modifications: ADA2 mature protein
B2: PEG-K374D: rHuADA2-K374D (SEQ ID NO:20) PEGylated on surface exposed lysines with linear PEG-20K (conjugate)
chain: B1 chain with K371D
modifications: linear PEG-20K on surface lysines; human ADA2 K371D, mature numbering

Key:
[1] = cited from earlier work
[2] = 24 hours, 37° C.
[3] = In vivo pharmacokinetics of PEGylated rHuADA2 combination variants (Example 14); settings: BALB/c mice, 3 mg/kg intravenous
Description: Twenty-seven (27) male BALB/c mice were divided into three (3) dosing groups, and were further divided into three (3) groups each for sampling of blood at different time points. Thus, the mice were randomized into nine (9) groups total. Mice were weighed prior to the start of the study, and randomized into the 9 groups based upon their body weights. In each sampling group, three groups of (3) mice were used for dosing each test article to prevent oversampling of the blood from the animals. For measurement of baseline ADA2 levels, a blood sample was obtained from 12 randomly chosen mice and plasma was prepared using the anti-coagulant potassium (K3) ethylene diamine tetraacetic acid (K3-EDTA). All blood was collected by submandibular venipuncture.
PEGylated ADA2 variants were prepared using the PEGylation method as described in Example 8.A, with minor modifications. Briefly, all ADA2 variants at 10 mg/mL were PEGylated with linear PEG-20K (JenKem Technology, Plano, Tex.; Cat. No. M-SCM-20K) at 1:15 molar ratio and incubated first at 37° for 30 min, then at 4° C. for 16 hours.
Approximately 200 μL of whole blood was collected at designated sampling time points from appropriate groups of mice as indicated below in Table 38 and kept on ice until plasma preparation. The initial two (2) blood samples were collected by submandibular venipuncture. The final sample was collected from a terminal bleed. Plasma was prepared by centrifuging the blood (500×g for 5 min at 4° C.), transferring the plasma to a fresh tube and immediately freezing at −80° C. until the adenosine deaminase activity assay. Adenosine deaminase activity was determined as described in Example 4.
Non-compartmental analysis (NCA) was conducted using the Phoenix WinNonlin version 6.3 (Pharsight Corp, St. Louis, Mo. 63101). The half-life, or time taken for the activity of ADA2 proteins to be reduced by half, was calculated. Also, total exposure was measured by calculating the Area Under the Concentration-time Curve (AUC). The AUC and half-life values were obtained from the unweighted average from each test article group. The following options in the Phoenix WinNonlin program were used for data analysis: (i) linear trapezoidal/linear interpolation option for AUC; (ii) best-fit slope selection option for terminal slope; and (iii) uniform weighting of the data.

[4] = vs non-PEGylated WT rHuADA2 of Example 9

Molecule	Km ([1]; for adenosine, wild-type enzyme in humans, read-out: Km) [µM]	Km ([1]; read-out: Km for adenosine) [µM]	activity retained in PBS/BSA control [2]	activity retained after treatment with plasma ([2]; mouse plasma)	AUC (total exposure) ([3]; plasma ADA activity)	Half-life slow (t1/2) ([3]; plasma ADA activity)	Percent increase in AUC compared to WT ADA2 [3, 4]	Percent increase in t1/2 compared to WT ADA2 [3, 4]
B1	~2000	~2250	no change in activity	about 65%				
B2					4,662 (U * h)/mL	2,256 min	14,177%	3,269%
